We go through four substances from article PMC6337304, “Site-directed Mutagenesis of a β-Glycoside Hydrolase from Lentinula edodes” (Molecules, 2018).

The subject of the data set is [H][C@]12[C@H](OC(=O)c3ccccc3)[C@]3(O)C[C@H](OC(=O)[C@H](O)[C@@H](NC(=O)c4ccccc4)c4ccccc4)C(C)=C([C@@H](O)C(=O)[C@]1(C)[C@@H](O[C@@H]1OC[C@@H](O)[C@H](O)[C@H]1O)C[C@@]1([H])OC[C@@]21OC(C)=O)C3(C)C. The data set is described as follows: HPLC of 10-deacetyltaxol formation, Michaelis-Menten nonlinear fit. The data set is classed as biochemical, Lentinula edodes. The settings on record: XDT 0.039–5.0 mmol/L; other conditions as in earlier report. An excerpt: HPLC of 10-deacetyltaxol formation, Michaelis-Menten nonlinear fit on LXYL-P1−1
For the substance “LXYL-P1−1 (Lentinula edodes; I368E/V91S)”, the Km was 0.20 (±0.01) mM, the maximum rate (Vmax) was determined as 3.43 µM/min and the kcat amounted to 2.06 ± 0.01 s⁻¹.

Turning to LXYL-P1−1 (Lentinula edodes; I368T), the Km was 0.35 (±0.10) mM, the Vmax was determined as 2.6 µM/min, the kcat was found to be 1.56 ± 0.34 s⁻¹ and the kcat/Km is 4460 M⁻¹ s⁻¹.

For LXYL-P1−1 (Lentinula edodes; I368E), the Km is given as 0.42 (±0.01) mM, the maximum rate (Vmax) is 4.02 µM/min, the turnover number (kcat) came to 2.41 ± 0.08 s⁻¹ and the kcat/Km was 5740 M⁻¹ s⁻¹.

As for LXYL-P1−1 (Lentinula edodes), the Km is 0.50 (±0.01) mM, the maximal velocity (Vmax) is 3.42 µM/min, the turnover number (kcat) was 2.05 ± 0.02 s⁻¹ and the kcat/Km turned out to be 4100 M⁻¹ s⁻¹.
